The target in assay [1] is endophilin SH3 (SH3G2_HUMAN), Q99962. Nature of the assay: SPOT array.
Assay [2] concerns the target T1, amphyphisin SH3 (AMPH_HUMAN), P49418.
T1 chain: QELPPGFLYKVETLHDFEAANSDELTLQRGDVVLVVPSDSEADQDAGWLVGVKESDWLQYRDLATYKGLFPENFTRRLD
As to the kind of experiment: SPOT array.

Turning to DDSVILRPSKSVKL [Q9Y2R2 666-679], the normalised SPOT signal, Boehringer light units (BLU); mean over the file's lines of this peptide in assay [1] worked out at 167; in assay [2], 119.

On to DDILINRPAKKHLE [Q9H9F8 116-129], for which the normalised SPOT signal, Boehringer light units (BLU); mean over the file's lines of this peptide was found to be 127 in assay [1] and 7.5 in assay [2].

As to DEARLRRPPRPSSD [Q9Y2H9 828-841], the normalised SPOT signal, Boehringer light units (BLU); mean over the file's lines of this peptide stood at 172 in assay [1] and 2750 in assay [2].

On to DEVWFKRPDGSKSK [Q9BRI4 246-259], for which the normalised SPOT signal, Boehringer light units (BLU); mean over the file's lines of this peptide in assay [1] is 60.8; in assay [2], 30.

In the case of DDEPPARPPPPPPA [Q9NQC3 135-149], the results for the normalised SPOT signal, Boehringer light units (BLU); mean over the file's lines of this peptide in assay [1] and in assay [2] were 54.3 and 37.6, respectively.

AAESPGRPPPTAAE [Q9UPS7 514-528]: the figures for the normalised SPOT signal, Boehringer light units (BLU); mean over the file's lines of this peptide in assay [1] and in assay [2] were 51.1 and 22, respectively.

Turning to DGRLLYRPNKAGET [Q9ULH0 399-412], the results for the normalised SPOT signal, Boehringer light units (BLU); mean over the file's lines of this peptide in assay [1] and in assay [2] were 44.6 and 20, respectively.

DKSPPPRPPTSPYP [O14607 862-876]: the normalised SPOT signal, Boehringer light units (BLU); mean over the file's lines of this peptide amounted to 4530 in assay [1] and 83.4 in assay [2].

Regarding DKSPPPRPPSSPYP [O15550 915-929], the normalised SPOT signal, Boehringer light units (BLU); mean over the file's lines of this peptide in assay [1] was 4090; in assay [2] it was 58.2.

DIKPLKRPRDEDDA [P11387 132-145]: the figures for the normalised SPOT signal, Boehringer light units (BLU); mean over the file's lines of this peptide in assay [1] and in assay [2] were 0 and 37.9, respectively.

Turning to DGSFLARPSKSNPG [Q06124 26-39], the normalised SPOT signal, Boehringer light units (BLU); mean over the file's lines of this peptide is 36.7 in assay [1] and 96.2 in assay [2].

Take DKIPFKRPSTYGVP [O95444 394-407]: the normalised SPOT signal, Boehringer light units (BLU); mean over the file's lines of this peptide came out at 67.7 in assay [1] and 35.1 in assay [2].

On to DIPGPTRPPGQVLS [AAH30713 119-133], for which the normalised SPOT signal, Boehringer light units (BLU); mean over the file's lines of this peptide in assay [1] was 85.2; in assay [2], 75.

DEPEPPRPRRGSLR [O43157 1891-1904]: the normalised SPOT signal, Boehringer light units (BLU); mean over the file's lines of this peptide in assay [1] turned out to be 126; in assay [2], 3590.

For the molecule DGVSLSRPGRTADS [P39191 408-421], the normalised SPOT signal, Boehringer light units (BLU); mean over the file's lines of this peptide was found to be 113 in assay [1] and 200 in assay [2].

DKADLIRPKRKYEK [Q9H2F5 327-340]: the results for the normalised SPOT signal, Boehringer light units (BLU); mean over the file's lines of this peptide in assay [1] and in assay [2] were 64.3 and 417, respectively.

For the molecule DEAQLSRPKKSSDR [O60481 257-270], the normalised SPOT signal, Boehringer light units (BLU); mean over the file's lines of this peptide in assay [1] worked out at 76.4; in assay [2], 51.5.

For DELEPRRPRYRVPD [Q14697 104-117], the normalised SPOT signal, Boehringer light units (BLU); mean over the file's lines of this peptide turned out to be 26.4 in assay [1] and 35.4 in assay [2].

Regarding DFPKPKKPPPPAKA [Q9Y5K6 333-347], the normalised SPOT signal, Boehringer light units (BLU); mean over the file's lines of this peptide in assay [1] was 8340; in assay [2] it was 33.

Take DIPEPRRPVVEQAL [O15031 1306-1319]: the figures for the normalised SPOT signal, Boehringer light units (BLU); mean over the file's lines of this peptide in assay [1] and in assay [2] were 41.3 and 37.2, respectively.

Regarding DGKFLLRPRKEQGT [P43403 184-197], the figures for the normalised SPOT signal, Boehringer light units (BLU); mean over the file's lines of this peptide in assay [1] and in assay [2] were 130 and 424, respectively.

On to DEEKPKRPTRRRRK [O94885 688-701], for which the values for the normalised SPOT signal, Boehringer light units (BLU); mean over the file's lines of this peptide in assay [1] and in assay [2] were 959 and 23100, respectively.

Consider ADVDPQRPPRPEVK [Q9ULR6 191-204], for which the normalised SPOT signal, Boehringer light units (BLU); mean over the file's lines of this peptide was 125 in assay [1] and 2760 in assay [2].

With DKKSPTRPKRHAKP [Q99710 3-16], the normalised SPOT signal, Boehringer light units (BLU); mean over the file's lines of this peptide in assay [1] was found to be 658; in assay [2], 4130.

With DESSPRRPDYLKGL [Q99698 2220-2233], the results for the normalised SPOT signal, Boehringer light units (BLU); mean over the file's lines of this peptide in assay [1] and in assay [2] were 28 and 23.9, respectively.

For the molecule DKKSPTRPKRQAKP [Q9P2W5 3-16], the normalised SPOT signal, Boehringer light units (BLU); mean over the file's lines of this peptide in assay [1] is 500; in assay [2] it was 3780.

Turning to ADAEPGRPKKRAHS [Q9P2P0 592-605], the normalised SPOT signal, Boehringer light units (BLU); mean over the file's lines of this peptide came out at 48.3 in assay [1] and 120 in assay [2].

As for DDLEIVRPARRRTP [Q15598 3286-3299], the values for the normalised SPOT signal, Boehringer light units (BLU); mean over the file's lines of this peptide in assay [1] and in assay [2] were 67.6 and 189, respectively.

On to DGRTPLRPSRNTKQ [Q9H0H1 56-69], for which the normalised SPOT signal, Boehringer light units (BLU); mean over the file's lines of this peptide in assay [1] turned out to be 287; in assay [2] it was 14900.

For DGDPLKRPLLGIVQ [O75060 326-339], the normalised SPOT signal, Boehringer light units (BLU); mean over the file's lines of this peptide was determined as 41.8 in assay [1] and 18.7 in assay [2].

On to DEGSLRRPGRLTST [Q96ML9 142-155], for which the normalised SPOT signal, Boehringer light units (BLU); mean over the file's lines of this peptide in assay [1] is 28.2; in assay [2], 81.1.

On to DKNIPMKPPTPLLN [AAM33634 99-113], for which the normalised SPOT signal, Boehringer light units (BLU); mean over the file's lines of this peptide in assay [1] is 240; in assay [2], 58.3.

Take DGKDPRRPKRPRTI [O60663 189-202]: the normalised SPOT signal, Boehringer light units (BLU); mean over the file's lines of this peptide in assay [1] stood at 85; in assay [2], 3740.

As for DKLSPDRPIRDTRH [Q9ULT9 130-143], the results for the normalised SPOT signal, Boehringer light units (BLU); mean over the file's lines of this peptide in assay [1] and in assay [2] were 794 and 3530, respectively.

Regarding DFYEPRRPEDDDPT [Q96IE0 67-80], the figures for the normalised SPOT signal, Boehringer light units (BLU); mean over the file's lines of this peptide in assay [1] and in assay [2] were 50.1 and 0, respectively.

Consider DGEMFMRPGKLFDY [P08574 161-174], for which the normalised SPOT signal, Boehringer light units (BLU); mean over the file's lines of this peptide amounted to 72.5 in assay [1] and 117 in assay [2].

Take DESRIRRPMNAFMV [P35713 81-94]: the normalised SPOT signal, Boehringer light units (BLU); mean over the file's lines of this peptide in assay [1] came to 94.4; in assay [2], 69.5.

Take AEEPLHRPKKELSA [P42858 83-96]: the normalised SPOT signal, Boehringer light units (BLU); mean over the file's lines of this peptide in assay [1] was 70.2; in assay [2] it was 134.
